Data reported in patent WO2007023782A1 (dated 2007).

B1: ScFv-A2 (scFv, V domains shown)
VH: QVKLQQSGAELMKPGASVKISCKATGYTFSSYWIEWVKQRPGHGLEWIGEILPGSGSTNYNEKFKGKATFTADTSSNTAYMQLSSLTSEDSAVYYCARYYGNYYAMDYWGQGTTVTVSS
notes: Mouse anti-idiotypic single chain Fv, VH-(Gly4Ser)3 linker-VL, with a C-terminal E-Tag; also called ScFv KTIdAb; anti-idiotypic ScFv
B2: ScFv-A4 (scFv)
scFv: MAQVKLQQSGAELMKPGASVKISCKATGYTFSSYWIEWVKQRPGHGLEWIGEILPGSGSTNYNEKFKGKATFTADTSSNTAYMQLSSLTSEDSAVYYCARYYGNYYAMDYWGQGTTVTVSSGGGGSGGGGSGGGGSDIVLTQSPAIMSASPGEKSPSPAVSAQVYVPATCTGTSRSQKPPPNPGFMAHPTWLLESQVASVAVGLENSYSLTISSMEAEDVATYYCFQGSGYPLTFGSGTKLEIKRAAAGAPVPYPDPLEPR
notes: as for B1
B3: ScFv-A1 (scFv)
scFv: MAQVKLQQSGAELMKPGASVKISCKATGYTFSSYWIEWVKQRPGHGLEWIGEILPGSGSTNYNEKFKGKATFTADTSSNTAYMQLSSLTSEDSAVYYCARYYGNYYAMDYWGQGTTVTVSSGGGGSGGGGSGGGGSDIVLTQSPAIMSASPGEKVTITCSVSSSISSSNLHWYQQKSETSPKPWIYGTSNLASGVPGRFSGSGSGNSYSLTISSMEAEDVATYYCFQGSGYPLTFGSGTKLEIKRAAAGAPVPYPDPLEPR
notes: also called ScFv-Al; ScFv KTIdAb
B4: ScFv-A3 (scFv)
scFv: MAQVKLQQSGAELMKPGASVKISCKATGYTFSSYWIEWVKQRPGHGLEWIGEILPGSGSTNYNEKFKGKATFTADTSSNTAYMQLSSLTSEDSAVYYCARYYGNYYAMDYWGQGTTVTVSSGGGGSGGGGSGGGGSDIVLTQSPAIMSASPGEKVTITCSVSSSRSSSNLHWYQQKSETSPKPWIYGTSNLASGVPGRFSGSGSGKLLLSHDQQHEAEDVATYYCFQGSGYPLTFGSGTKLEIKRAAAGAPVPYPDPLEPR
notes: as for B1

Columns and labels:
[1] = target: T1, nmAb-KT (neutralizing monoclonal antibody against HM-1 killer toxin); assay: SPR (BIAcore X), nmAb-KT immobilised; ratio of Ka values
T1 construct: also called nmb-KT; HM-1 neutralizing monoclonal antibody

[2] = target: T2, BSA (Bovine serum albumine) (bovine, UniProt P02769 25-607); assay: SPR (BIAcore X), BSA negative control
T2 construct: Negative control; also called negative control
T2 sequence (P02769 25-607 limits assumed): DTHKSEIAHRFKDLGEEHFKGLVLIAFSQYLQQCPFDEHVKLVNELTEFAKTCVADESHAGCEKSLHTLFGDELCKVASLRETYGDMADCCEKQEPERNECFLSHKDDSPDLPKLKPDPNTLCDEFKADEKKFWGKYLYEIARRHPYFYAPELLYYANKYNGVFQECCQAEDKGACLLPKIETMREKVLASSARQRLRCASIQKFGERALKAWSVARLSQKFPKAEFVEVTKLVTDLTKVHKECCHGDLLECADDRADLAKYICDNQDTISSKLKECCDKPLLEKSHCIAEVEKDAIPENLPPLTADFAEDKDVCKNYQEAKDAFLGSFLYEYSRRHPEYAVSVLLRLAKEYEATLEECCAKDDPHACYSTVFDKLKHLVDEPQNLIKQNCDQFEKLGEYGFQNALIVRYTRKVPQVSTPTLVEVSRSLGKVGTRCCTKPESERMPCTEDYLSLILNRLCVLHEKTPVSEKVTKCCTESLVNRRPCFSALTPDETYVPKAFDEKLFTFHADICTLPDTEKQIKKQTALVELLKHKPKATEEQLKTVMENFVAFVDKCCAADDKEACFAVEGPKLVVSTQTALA

[3] = target: T1, nmAb-KT (neutralizing monoclonal …); assay: SPR (BIAcore X), nmAb-KT immobilised, differs in the last digit from Table 2
[4] = target: T1, nmAb-KT (neutralizing monoclonal …); assay: SPR (BIAcore X), nmAb-KT immobilised on CM5 chip, ScFv 15.75-250 nM as analyte, 25 C, HBS-EP
[5] = target: T1, nmAb-KT (neutralizing monoclonal …); assay: SPR (BIAcore X), nmAb-KT immobilised on CM5 chip; Ka = kon/koff
[6] = target: T1, nmAb-KT (neutralizing monoclonal …); assay: SPR (BIAcore X), nmAb-KT immobilised, rounded against Table 2

Binder	fold of affinity constant Ka against ScFv-A1 or ScFv-A4 [1] [fold]	fold of affinity constant Ka against ScFv-A3 [1] [fold]	binding result [2]	Ka [3] [M⁻¹]	koff [4] [s⁻¹]	kon [4] [M⁻¹ s⁻¹]	Ka [5] [M⁻¹]	Ka [6] [M⁻¹]
B1	~1.2	~2	no binding (tested: 15.75 nM-250 nM ScFv)	6.65e+07	0.00458	305000	6.66e+07	–
B2	–	–	no binding (tested: 15.75 nM-250 nM ScFv)	–	0.005	224000	4.48e+07	–
B3	–	–	no binding (tested: 15.75 nM-250 nM ScFv)	–	0.00507	243000	4.79e+07	4.8e+07
B4	–	–	no binding (tested: 15.75 nM-250 nM ScFv)	3.04e+07	0.00751	229000	3.05e+07	–
